B1: Phacovirus Pf-CHK1 (nucleic acid)
DNA: GTGTGTCATTTCTCCCCTCCCCCTCCCAAACCTTTTCCCCCTCTAATCGGATTGATTAACCCGGTTAAAGATGATTAATGGTTTGTGAGTTGATATGATGGCCCGGCATTGAATCCGGGAATTCTTAAGTAATGGAATTGCATCCAATATGAAAGTGAGTGTGGCAAGCTCACAAGTAGTACTTGGCTCTGCCCATTATTTGAGGACCAACTCTTCTTGACTACAATGTGTTTAAAGTAAACTGGACCACATTGTGTATCCAGACAACTCCATTTGATAATGTACGCTGGAAACGTTTTCAGTGCATAGGGTCCTAAAGTGGTGCTGAAATATTGCAAGCTCAATGGGATACTGAACGCTGAAAACCGCCGCTGTTATCATATGGGCCCCTAGTGGGTAAATGTTGGCTTTAGGCATATACTGCTTGGGAATGCAGTACTGGTTGTAGACAGGGTGATAGCCTACCGGCTGGCGTAGTTGAGTTGGTATAGCCAGTTGATTGCCAT
B2: HRVA73 (nucleic acid, listed as Rhinovirus sp.)
DNA: TTAAAACTGGGTTTGGGTTGTTCCCACCCAAACCACCCACGCGGTGTTGTACACTGTTATTCCGGTAACCTTGTACGCCAGTTTTATATCCCTTCCCCCCCTTGTAACTTAGAAGACATGCGAATCGACCAATAGCAGGCAATCAACCAGATTGTCACCGGTCAAGCACTTCTGTTTCCCCGGCTCTCGTTGATATGCTCCAACAGGGCAAAAACAATTGGAGTCGTTACCCGCAAGATGCCTACGCAAAACCTAGTAGCATCTTCGAAGATTTTTGGTTGGTCGCTCAGTTGCTACCCCAGCAATAGACCTGGCAGATGAGGCTAGAAATACCCCACTGGTGACAGTGTTCTAGCCTGCGTGGCTGCCTGCACACCCACACGGGTGTGAAGCCAAAGATTGGACAAGGTGTGAAGAGTCACGTGTGCTCATCTTGAGTCCTCCGGCCCCTGAATGCGGCTAACCTTAACCCCGTAGCCATTGCTCGCAATCCAGCGAGTATATGGTCGTAATGAGTAATTACGGGATGGGACCGACTACTTTGGGTGTCCGTGTTTCACTTTTTACTTATCAATTTGCTTATGGTGACAATATATATAGATATATATTGACACC
B3: PSIV (2x mut for Xba1) (nucleic acid)
DNA: GCAAAATGGGTACGTAGTTAACCACTGCGTATCAGGATTGCAGGCCACGAAGGGTATTTGCATATCTTTCTATGCGGTATTACGGCTTAAAACCCGTTGTATCTTGTTGTTTGACTGCCTGTATCACTAGTGGCCATTTTATTTAGGTTAGAGACCCCTGATAGTAGGAGAGTTACAAACTCTTTAAAAATTGTTGACCCCGGAAAAGATGGTGACCCCTGTAAGTAGTTGATCAAGAAGATCTATGCGCTGGCATAGTAATCCAGTGTTTCCTGTTTTAGGATGACCTCTGAAAGTAGATGACCGTGGAAAGTCACGTAGTGCCCCAATAAGCACGTTTGGGCAGCGTGCGCTATCACAAGGCTTGATCTCCGAGGAGCCCCTTGTTTTAGCTGGCTGGAAGCCAATGATCTTAAGTAGATAAGTGCTGTTGCTTGTAGTTCAACAGAAAGCTTTGAGTACGTCTTTCTTGCGAGAAAGAACACATGCATTCTTATGCTCTCAATTCTATTATTTTTATTTTGGGCGAAAGGAAAGCTCTCACGCGAGTACGAATAGCCAACCCTTTAT
B4: Boosepivirus B (nucleic acid)
DNA: TTTTCTCCCCTCCCCCTCCAACTACCTTTTCCCCCTCTTGTAACGCTAGAAGTTTGTGCAAACCGCCTGTAGGGTACTGCAATCCAGCAGTGCATAGGCTAAGCTTTTCTTGTTACCCCACCCCACATTATACTGAGGAGGATTGTGAAATTGTGTTAGTATGGGTTAGTAGCGGTGACCCGGGTAACCCCAACCCAGAAACTCACGGATGAGATGAACAGGACCCCACATGGTAACGTGTGTGTTCGTCTGCCCCGCAAGGTGAGGCCGTGAGAGCTTTGCACGCGAAAACCTTGAAAACCCAAAAGTACCTTGAGCTCTTCGCTATTTTGTGTTTCCTCCAGGACCCTGAATGCGGCTAAACCTAACCCGCGATCCGCACGTAGCAACCCAGCTAGAGTGTGGTCGTAATGCGCAAGTTGCGGGCGGTACCGACTACTTTGGTGTTCCTGTGTTTCCTTTATTTTATTTTGAATTTTTATGGTGACAACAGCTAGAAAATAAGAGTGAAC
modifications: Boosepivirus B
B5: EV K (nucleic acid)
DNA: TCAGCCTGACGCAAGTGCCTCCATTGGAGTCTCTCCAAGCCCTCCGGGGCTTGGAGGGCGCCGACCCCCTGCCTAGGGGGAGCCCACGACACGGCTGGAGTCCATTGGCACACCGCAGCCACGATTCAAGCCAGAATTGAAAGCGGGAAGCACTTCTGTCTCCCCGGTGTGGATCATACGCTGTACCCACGGCGAAAAGTGAAGCATCGTTACCCGACTCGGTACTTCGAGAAGCCCAGTACAGTTGTGGATCTCTGCAGGGTATACGCTCAGCGTGACCCCTACGTAGTTCCTTGAGATGGCTGAGAGAACACCCCACGGGCGACCGTGTCTCTCGGCGCGTGGCTCAAGGCCGGGCCTTCAGTGGCTCGGTGCCTTGCAGAGTGAAGCCTCCGAACAGCCTATTGAGCTACCGTTTAGCCTCCGCCCTCTTGAATGCGGCTAATCCTAACCATGGAGCGCCCGCCCACAGTCCAGTGGGTAGAGCGTCGTAACGCGCAAGTCCGTGGCGGAACCGACTACTTTAGAGTGGCGTGTTTCCAATTTATCCTTTATAAAGTTGCTTATGGTGACACCACAAGAGATCCACGATTTCTTGTTTCTTATCACTGAGACACAAGTCATATTCATCAATCTTTATTGCGGAATTAACTTGGTGCGTCCAAACACATCAGC
modifications: Enterovirus K
B6: Boosepivirus A (nucleic acid)
DNA: TTGAAAGACCTCGGCATATATCGTTGTCACAACGGTATATGTCGAGATCTTTCTCCCCACCCCCTCCAATTCCCTTTTCCCCCTCTTGCAACTTAGAAGTTTGTACACACAGGGCAATAGGATACGTGATCCAGCCAGGACACGTGAGCTCAAGCACTTCTGTTTCCCCGTCCCCTTCACGTACTACGGGAATGTTAGTAATTTGTGTGCACTTTAGTAAGGTTGATCCGGGATTAACCCCAAATCCCAGAAACTGGTGATGAGCGTTACCACCCCCGCCGGGCGACCGGAAGGTTTCGCTGCGTTGGCACCAGGGCTTCGGCACCAGAAAAAGGTAAAGCAAATGAAGGCGCTACTGTGCTACGAGAAGTTTCCTCCAGGCCCCTGAATGCGGCTAATCCTAACCAGTGATCCACCGGTGCAAAACCATGTACTAGGTGGTCGTAACGCGCAAGTCGCTGGCGGAACCGACTACTTTGGGTGTCCTGTGTTTCCATATTTTATTTTATTCAATTTTATGGTGACAAGAGTAAAGAGATACAGATTTGCAGCC
modifications: Boosepivirus A
B7: HRVB27 (nucleic acid, listed as Rhinovirus sp.)
DNA: TTAAAACAGCGGATGGGTATCCCACCATCCGACCCACAGGGTGTAGTGCTCTGGTATTTTGTACCTTTGCACGCCTGTTTCCCCATTGTACCCCTCCTTAAATTTCCTCCCCAAGTAACGTTAGAAGTTTAAGGAAACAAATGTACAATAGGAAGCATCACATCCAGTGGTGTTATGTACAAGCACTTCTGTTTCCCCGGAGCGAGGTATAAGTGGTACCCACCGCCGAAAGCCTTTAACCGTTATCCGCCAATCAACTACGTAATGGCTAGTATTACCATGTTTGTGACTTGGTGTTCGATCAGGTGGTTCCCCCCACTAGTTTGGTCGATGAGGCTAGGAACTCCCCACGGGTGACCGTGTCCTAGCCTGCGTGGCGGCCAACCCAGCTTTTGCTGGGACGCCTTTTTACAGACATGGTGTGAAGACCTGCATGTGCTTGATTGTGAGTCCTCCGGCCCCTGAATGCGGCTAACCTTAACCCCGGAGCCTTGCAACATAATCCAATGTTGTTGAGGTCGTAATGAGTAATTCTGGGATGGGACCGACTACTTTGGGTGTCCGTGTTTCCTTTTATTCTTTATATTGTCTTATGGTCACAGCATATATAGCATATATACTGTGATC
B8: HRVC3 QPM (nucleic acid, listed as Rhinovirus sp.)
DNA: TTAAAGCTGGATCATGGTTGTTCCCACCATGATTACCCACGCGGTGCAGTGGTCTTGTATTACGGTACATTTCCATACCAGTTTTATACACCCCACCCCGAAACTCATAGAAGTTTGTACACAATGACCAATAGGTGGTGGCCATCCAGGTCGCTAATGGTCAAGCACTTCTGTTTCCCCGGCACCCTTGTATACGCTTCACCCGAGGCGAAAAATGAGGTTGTCGTTATCCGCAAAGTGCCTACGAAAAGCCTAGTAACACTTTGAAAACCCATGGTTGGTCGCTCAGCTGTTTACCCAACAGTAGACCTGGCAGATGAGGCTAGACATTCCCCACCAGCGATGGTGGTCTAGCCTGCGTGGCTGCCTGCACACCCTGCCGGGTGTGAAGCCAGAAAGTGGACAAGGTGTGAAGAGCCTATTGTGCTCACTTTGAGTCCTCCGGCCCCTGAATGTGGCTAACCCTAACCCCGTAGCTGTTGCATGTAACCCAACATGTATGCAGTCGTAATGGGCAACTATGGGATGGGACCAACTACTTTGGGTGTCCGTGTTTCCTGTTTTACTTTTTCATTGCTTATGGTGACAATTGTATCTGATACACTTGTTACC
B9: EV L (nucleic acid)
DNA: ACATGGGCCAGCCCACCACACCCACTGGGTGTAGTAGTCTGGTTCTATGGAACCTTTCTACGCCTCTTTTGCTTCCCTCCCCCATTTCTCCTTCGATTGCTCCACCTGTGATCTTTGCAACTTAGAAGAAATAATGAACCCGCACAATAGCGGGCGCTGAGCCACAGCGTCAATGTGCAAGCACTTCTGTTTCCCCGGAATGGGCCCATAGGCTGTACCCACGGCTGAAAGGGACCGGCCCGTTACCCGCCTTGGTACTGCGAGAATGTTAGTAACTCCCTCGATAGCTTTAGGCGTTACGCTCAGCCCTTTGAGCCCGAAGGGTAGTTCGGGTCGATGAGGCTCGTCATTCCCCACTGGCGACAGTGTGACTTGCCTGCGTTGGCGGCCCGGGGTGGGGGGCAACCCCCATCCACGCCTACTGAAGGACAGGGTGTGAAGGCGCTATTGCGCTACTAAGGAGTCCTCCGGCCCCTGAATGCGGCTAACCCGAACCCCGAGCCCACGGTGGTAAACCCGCCACAAGTGGGTCGTAATGAGTAATTTGGGGCAGGGACCGACTACTTTGGGTGTCCGTGTTTCCTGTTTTTCCATACGATGGCTGCTTATGGTGACAACCATAAGCAATTGGATTGGCCATCCGGTGTTCATATTGCGAAT
modifications: Enterovirus L

The text below walks through data of patent US20230226096A1 (Orna Therapeutics, Inc., priority 2020, published 2023).

The data set has as its system HEK293 cells. Format: cell-based, human. As to conditions: luminescence from secreted Gluc in supernatant 24 hours after transfection of HEK293 cells; circular RNA encoding Gluc with the named IRES (UTR truncated to 675 nt).
Molecule B1 yielded an Expression of 5.87E+06.

Turning to B2, the Expression is 1.08E+08.

For the molecule B3, the Expression is 9.70E+04. B4 yielded an Expression of 1.17E+08.

B5 gave an Expression of 7.52E+07. The same measure for B6: 7.07E+07; for B7: 2.04E+08; for B8: 1.64E+07. The result for B9 reads 6.49E+07.
